Measured values as given in US20200282021A1 (GENEXINE, published 2020).

How the values were obtained:
[1] = biological target: GLP-1 receptor expressed on the transgenic cell line GLP1R_cAMP/luc; experiment: cell-based or functional assay
[2] = biological target: T1, human GLP-1 receptor (Abcam) (human, UniProt P43220 24-145, limits assumed); experiment: SPR (Proteon XPR36), human GLP-1 receptor immobilised
T1 construct: Bought recombinant protein
Procedure: (§1) Binding affinity of each TAs were evaluated by SPR (Proteon XPR36, BIO-RAD) and based on the protocol modified from general procedure of SPR analysis in published paper. Specifically, the proteon GLC chip (BIO-RAD, USA) was stabilized with PBST (PBS+0.01% tween 20, pH 7.4). Stabilized GLC chip was activated with 150 uL of Sulfo-NHS (0.001 M) and EDC (0.04M) (1:1) followed by immobilization of 10 ug/mL human GLP-1 receptor (Abcam, UK) diluted in acetate buffer (pH 5.0). After immobilization level was recorded and deactivation by 1 M Ethanolamine-HCl (pH 8.5), different concentrations of Dulaglutide and GLP-1-gFc (0, 1.25, 2.5, 5, 10 uM) were injected to each channel of chip. Chip was regenerated by 25 mM NaOH and checked ‘Zero base’ before repeated analysis of same molecule or other TA. All binding sesorgrams were collected, processed, and analyzed using the integrated Proteon Manager software (Bio-RAD, USA). Binding curves were fitted using the Laugmuir model.

[3] = biological target: T1, human GLP-1 receptor (Abcam); experiment: SPR (Proteon XPR36), human GLP-1 receptor immobilised, analyte 0-10 uM, Langmuir fit
Procedure: as §1

EC50, cAMP-dependent luciferase reporter in GLP-1R over-expressing cells [1]: 23.3 pM
fold difference of EC50 against Dulaglutide, cAMP-dependent luciferase reporter [1]: 3.5 fold
fold koff against Dulaglutide [2]: ~10 fold
fold kon against Dulaglutide [2]: 1.7 fold
Kd [3]: 16 µM
B1: GLP-1(A2G)-hyFc9 (Fc fusion)
chain: HGEGTFTSDVSSYLEGQAAKEFIAWLVKGRGAKATTAPATTRNTGRGGEEKKKEKEKEEQEERETKTPECPSHTQPLGVFLFPPKPKDTLMISRTPEVTCVVVDVSQEDPEVQFNWYVDGVEVHNAKTKPREEQFNSTYRVVSVLTVLHQDWLNGKEYKCKVSNKGLPSSIEKTISKAKGQPREPQVYTLPPSQEEMTKNQVSLTCLVKGFYPSDIAVEWESNGQPENNYKTTPPVLDSDGSFFLYSRLTVDKSRWQEGNVFSCSVMHEALHNHYTQKSLSLSLGK
modifications: O-glycosylation at the IgD hinge region (positions not stated)
notes: also called GLP-1-gFc; GLP-1-hyFc9
